Assay results from patent US7141393 (KABUSHIKI KAISHA HAYASHIBARA SEIBUTSU KAGAKU KENKYUJO, dated 2006).

Target: T1, IL-18R protein on the surface of L428 cell (human, UniProt Q13478 19-541)
T1 construct: whole, on cells; Endogenous receptor on cell lines; also called L428 cells; IL-18R protein on the surface of KG-1 cell
T1 sequence (looked up): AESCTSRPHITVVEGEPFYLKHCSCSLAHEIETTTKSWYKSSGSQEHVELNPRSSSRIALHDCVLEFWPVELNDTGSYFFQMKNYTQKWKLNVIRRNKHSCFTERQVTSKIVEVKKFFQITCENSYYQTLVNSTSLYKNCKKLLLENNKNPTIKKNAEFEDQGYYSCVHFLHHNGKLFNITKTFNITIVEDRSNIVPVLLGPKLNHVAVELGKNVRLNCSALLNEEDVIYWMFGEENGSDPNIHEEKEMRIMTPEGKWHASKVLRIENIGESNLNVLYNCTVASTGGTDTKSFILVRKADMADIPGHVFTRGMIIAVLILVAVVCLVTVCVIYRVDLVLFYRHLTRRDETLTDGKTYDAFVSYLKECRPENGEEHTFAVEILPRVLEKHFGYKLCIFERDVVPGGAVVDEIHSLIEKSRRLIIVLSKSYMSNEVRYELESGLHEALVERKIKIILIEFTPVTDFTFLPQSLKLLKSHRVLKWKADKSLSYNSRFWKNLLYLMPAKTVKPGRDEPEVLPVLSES
Experiment: inhibition of 125I-labelled IL-18 binding to L428 cells (FIG. 1 legend)
Description: Subsequently, each cell suspension was added with 200 µl mixture solution (volume ratio 1:1) of dibutylphthalate and diocthylphtalate and centrifuged at 10,000 rpm and 20° C. for 5 minutes, followed by collecting the resultant precipitates containing the cells which were then determined for radioactivity using "MODEL ARC-300", a gamma-ray counter commercialized by Aloka Co., Ltd, Tokyo, Japan.
The levels of radioactivity found in "non-specific binding section" and "whole binding section" were put in Formula 1 together with that found in the sample testing section to calculate percent inhibition.

binding result: binds
B1: monoclonal antibody MAb #117-10C (antibody, V domains shown)
VH: EVQLQQSGAELVKPGASVKLSCTTSGFNIKDIYIYWVKQRPEQGLEWVGRIDPANGDTKYGPNFQDKATITADTSSNTAYLQLRSLTSEDTAVYYCARRGNYGAGFGYWGQGTLVTVSA
VL: DIQMTQSPASLSASVGETVTITCRASGNIHNYLAWYQQRQGKSPQILVYNAKTLADGVSSRFSGSGSGTQYSLNINSLQPEDFGTYFCQHFWSTPYTFGGGTKLEIKR
notes: Mouse hybridoma antibody purified from ascites
